Laboratory results: publication PMC2920948, “Structural Comparison of Human Mammalian Ste20-Like Kinases” (PLoS ONE, 2010)

Biological target: the molecule itself
Assay: AUC; sedimentation velocity; 30 µM unphosphorylated protein in 50 mM HEPES pH 7.5, 100 mM NaCl; 45,000 rpm; c(s) analysis with SEDFIT; monomer and dimer peaks

B1: MST4 kinase domain (residues 1-300), unphosphorylated (domain or fragment)
chain: not shown
notes: MST4 (mammalian Ste20-like kinase 4), human, residues 1-300 with the kinase domain, cloned from a Mammalian Gene Collection clone into pLIC-SGC1; Phosphorylation was removed with lambda-phosphatase; also called mammalian Ste20-like kinase 4; source: E. coli BL-21(DE3)-R3-pRARE2, purified (Ni-NTA, TEV cleavage, lambda-phosphatase, Superdex 200 SEC, MonoQ); not shown: His6, N-terminal, cleaved
stoichiometry N: 2
